{"source": "patent US20230022700A1", "molecular_target": "polymerized rabbit skeletal muscle actin (F-actin) (rabbit) (UniProt P68135)"}
{"substance": "Wolbachia wMel protein WD0830 (Wolbachia actin localizing effector 1, WalE1), purified from E. coli", "values": [{"measurement": "percent of total protein in the pellet when actin was present", "value": 24, "unit": "%"}]}
